From US20200164032A1

Assays:
human CCL2 (human) [1] = molecular target: human CCL2 (human) (UniProt P13500); experiment: SPR, T17 amine-coupled to CM5 chip
murine CCL3 (mouse) [2] = molecular target: murine CCL3 (mouse) (UniProt P10855); experiment: SPR, T17 amine-coupled to CM5 chip
murine CCL2 (mouse) [3] = molecular target: murine CCL2 (mouse) (UniProt P10148); experiment: SPR, T17 amine-coupled to CM5 chip
[4] = molecular target: XCL1 (as tested against T17; species not stated); experiment: BLI (Octet Red), biotinylated T17 on streptavidin biosensors; KD,kin
[5] = molecular target: CXCL10 (as tested against T17; species not stated); experiment: as above
[6] = molecular target: CXCL12 (hSDF-1b) (Homo sapiens) (UniProt P48061); experiment: as above
human CCL2 (human) [7] = molecular target: human CCL2 (human) (UniProt P13500); experiment: SPR (Biacore T-100), T17 on CM5 chip; t1/2
murine CCL5 (mouse) [8] = molecular target: murine CCL5 (mouse) (UniProt P30882); experiment: SPR (Biacore T-100), T17 on CM5 chip; t1/2
murine CCL20 (mouse) [9] = molecular target: murine CCL20 (mouse) (UniProt O89093); experiment: SPR (Biacore T-100), T17 on CM5 chip; t1/2
murine CCL12 (mouse) [10] = molecular target: murine CCL12 (mouse) (UniProt Q62401); experiment: SPR (Biacore T-100), T17 on CM5 chip; t1/2
murine CCL8 (mouse) [11] = molecular target: murine CCL8 (mouse) (UniProt Q9Z121); experiment: SPR (Biacore T-100), T17 on CM5 chip; t1/2
murine CCL21 (mouse) [12] = molecular target: murine CCL21 (mouse) (UniProt P84444); experiment: SPR (Biacore T-100), T17 on CM5 chip; t1/2
murine CCL4 (mouse) [13] = molecular target: murine CCL4 (mouse) (UniProt P14097); experiment: SPR (Biacore T-100), T17 on CM5 chip; t1/2
CCL9 [14] = molecular target: CCL9 (UniProt P51670); experiment: SPR (Biacore T-100), T17 on CM5 chip; t1/2
murine CCL11 (mouse) [15] = molecular target: murine CCL11 (mouse) (UniProt P48298); experiment: SPR (Biacore T-100), T17 on CM5 chip; t1/2
murine CCL3 (mouse) [16] = molecular target: murine CCL3 (mouse) (UniProt P10855); experiment: SPR (Biacore T-100), T17 on CM5 chip; t1/2
murine CCL24 (mouse) [17] = molecular target: murine CCL24 (mouse) (UniProt Q9JKC0); experiment: SPR (Biacore T-100), T17 on CM5 chip; t1/2
murine CCL2 (mouse) [18] = molecular target: murine CCL2 (mouse) (UniProt P10148); experiment: SPR (Biacore T-100), T17 on CM5 chip; t1/2
[19] = molecular target: XCL1 (as tested against T17; species not stated)
[20] = molecular target: CXCL10 (as tested against T17; species not stated)
[21] = molecular target: CXCL12 (hSDF-1b) (Homo sapiens) (UniProt P48061)
human CCL2 (human) [22] = molecular target: human CCL2 (human) (UniProt P13500); experiment: SPR (Biacore T-100), T17 on CM5 chip; KD,kin
murine CCL5 (mouse) [23] = molecular target: murine CCL5 (mouse) (UniProt P30882); experiment: SPR (Biacore T-100), T17 on CM5 chip; KD,kin
murine CCL20 (mouse) [24] = molecular target: murine CCL20 (mouse) (UniProt O89093); experiment: SPR (Biacore T-100), T17 on CM5 chip; KD,kin
murine CCL12 (mouse) [25] = molecular target: murine CCL12 (mouse) (UniProt Q62401); experiment: SPR (Biacore T-100), T17 on CM5 chip; KD,kin
murine CCL8 (mouse) [26] = molecular target: murine CCL8 (mouse) (UniProt Q9Z121); experiment: SPR (Biacore T-100), T17 on CM5 chip; KD,kin
murine CCL21 (mouse) [27] = molecular target: murine CCL21 (mouse) (UniProt P84444); experiment: SPR (Biacore T-100), T17 on CM5 chip; KD,kin
murine CCL4 (mouse) [28] = molecular target: murine CCL4 (mouse) (UniProt P14097); experiment: SPR (Biacore T-100), T17 on CM5 chip; KD,kin
CCL9 [29] = molecular target: CCL9 (UniProt P51670); experiment: SPR (Biacore T-100), T17 on CM5 chip; KD,kin
murine CCL11 (mouse) [30] = molecular target: murine CCL11 (mouse) (UniProt P48298); experiment: SPR (Biacore T-100), T17 on CM5 chip; KD,kin
murine CCL3 (mouse) [31] = molecular target: murine CCL3 (mouse) (UniProt P10855); experiment: SPR (Biacore T-100), T17 on CM5 chip; KD,kin
murine CCL24 (mouse) [32] = molecular target: murine CCL24 (mouse) (UniProt Q9JKC0); experiment: SPR (Biacore T-100), T17 on CM5 chip; KD,kin
murine CCL2 (mouse) [33] = molecular target: murine CCL2 (mouse) (UniProt P10148); experiment: SPR (Biacore T-100), T17 on CM5 chip; KD,kin
[34] = molecular target: XCL1 (as tested against T17; species not stated); experiment: BLI (Octet Red), biotinylated T17 on streptavidin biosensors; t1/2
[35] = molecular target: CXCL10 (as tested against T17; species not stated); experiment: as above
[36] = molecular target: CXCL12 (hSDF-1a) (Homo sapiens) (UniProt P48061); experiment: as above
[37] = molecular target: CXCL12 (hSDF-1b) (Homo sapiens) (UniProt P48061); experiment: as above
human CCL2 (human) [38] = molecular target: human CCL2 (human) (UniProt P13500); experiment: SPR (Biacore T-100), T17 on CM5 chip; global 1:1 mass transport fit
murine CCL5 (mouse) [39] = molecular target: murine CCL5 (mouse) (UniProt P30882); experiment: as above
murine CCL20 (mouse) [40] = molecular target: murine CCL20 (mouse) (UniProt O89093); experiment: as above
murine CCL12 (mouse) [41] = molecular target: murine CCL12 (mouse) (UniProt Q62401); experiment: as above
murine CCL8 (mouse) [42] = molecular target: murine CCL8 (mouse) (UniProt Q9Z121); experiment: as above
murine CCL21 (mouse) [43] = molecular target: murine CCL21 (mouse) (UniProt P84444); experiment: as above
murine CCL4 (mouse) [44] = molecular target: murine CCL4 (mouse) (UniProt P14097); experiment: as above
CCL9 [45] = molecular target: CCL9 (UniProt P51670); experiment: as above
murine CCL11 (mouse) [46] = molecular target: murine CCL11 (mouse) (UniProt P48298); experiment: as above
murine CCL3 (mouse) [47] = molecular target: murine CCL3 (mouse) (UniProt P10855); experiment: as above
murine CCL24 (mouse) [48] = molecular target: murine CCL24 (mouse) (UniProt Q9JKC0); experiment: as above
murine CCL2 (mouse) [49] = molecular target: murine CCL2 (mouse) (UniProt P10148); experiment: as above
[50] = molecular target: XCL1 (as tested against T17; species not stated); experiment: BLI (Octet Red), biotinylated T17 on streptavidin biosensors; KD,eq
[51] = molecular target: CXCL10 (as tested against T17; species not stated); experiment: as above
[52] = molecular target: CXCL12 (hSDF-1b) (Homo sapiens) (UniProt P48061); experiment: as above
human CCL2 (human) [53] = molecular target: human CCL2 (human) (UniProt P13500); experiment: SPR (Biacore T-100), T17 on CM5 chip; KD,eq
murine CCL5 (mouse) [54] = molecular target: murine CCL5 (mouse) (UniProt P30882); experiment: SPR (Biacore T-100), T17 on CM5 chip; KD,eq
murine CCL20 (mouse) [55] = molecular target: murine CCL20 (mouse) (UniProt O89093); experiment: SPR (Biacore T-100), T17 on CM5 chip; KD,eq
murine CCL12 (mouse) [56] = molecular target: murine CCL12 (mouse) (UniProt Q62401); experiment: SPR (Biacore T-100), T17 on CM5 chip; KD,eq
murine CCL8 (mouse) [57] = molecular target: murine CCL8 (mouse) (UniProt Q9Z121); experiment: SPR (Biacore T-100), T17 on CM5 chip; KD,eq
murine CCL21 (mouse) [58] = molecular target: murine CCL21 (mouse) (UniProt P84444); experiment: SPR (Biacore T-100), T17 on CM5 chip; KD,eq
murine CCL4 (mouse) [59] = molecular target: murine CCL4 (mouse) (UniProt P14097); experiment: SPR (Biacore T-100), T17 on CM5 chip; KD,eq
CCL9 [60] = molecular target: CCL9 (UniProt P51670); experiment: SPR (Biacore T-100), T17 on CM5 chip; KD,eq
murine CCL11 (mouse) [61] = molecular target: murine CCL11 (mouse) (UniProt P48298); experiment: SPR (Biacore T-100), T17 on CM5 chip; KD,eq
murine CCL3 (mouse) [62] = molecular target: murine CCL3 (mouse) (UniProt P10855); experiment: SPR (Biacore T-100), T17 on CM5 chip; KD,eq
murine CCL24 (mouse) [63] = molecular target: murine CCL24 (mouse) (UniProt Q9JKC0); experiment: SPR (Biacore T-100), T17 on CM5 chip; KD,eq
murine CCL2 (mouse) [64] = molecular target: murine CCL2 (mouse) (UniProt P10148); experiment: SPR (Biacore T-100), T17 on CM5 chip; KD,eq

Sequence of murine CCL2 (mouse) (P10148 24-148 limits assumed): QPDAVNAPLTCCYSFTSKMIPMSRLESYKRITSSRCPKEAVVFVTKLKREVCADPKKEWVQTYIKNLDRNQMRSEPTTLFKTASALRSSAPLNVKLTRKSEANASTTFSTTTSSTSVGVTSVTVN
Sequence of murine CCL12 (mouse) (Q62401 23-104 limits assumed): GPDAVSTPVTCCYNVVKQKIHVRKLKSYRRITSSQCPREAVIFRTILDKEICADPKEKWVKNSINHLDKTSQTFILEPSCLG
Sequence of human CCL2 (human) (P13500 24-99 limits assumed): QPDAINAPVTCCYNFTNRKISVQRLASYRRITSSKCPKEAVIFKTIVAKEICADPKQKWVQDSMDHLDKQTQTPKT
Sequence of murine CCL11 (mouse) (P48298 24-97 limits assumed): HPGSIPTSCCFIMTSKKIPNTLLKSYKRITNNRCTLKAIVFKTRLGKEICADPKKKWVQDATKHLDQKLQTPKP
Sequence of murine CCL8 (mouse) (Q9Z121 24-97 limits assumed): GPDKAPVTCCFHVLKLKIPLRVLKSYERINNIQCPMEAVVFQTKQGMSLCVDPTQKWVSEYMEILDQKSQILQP
Sequence of CCL9 (P51670 22-122 limits assumed): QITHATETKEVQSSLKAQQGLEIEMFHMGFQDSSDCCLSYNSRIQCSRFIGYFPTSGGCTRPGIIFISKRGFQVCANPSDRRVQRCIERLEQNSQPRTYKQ
Sequence of murine CCL4 (mouse) (P14097 24-92 limits assumed): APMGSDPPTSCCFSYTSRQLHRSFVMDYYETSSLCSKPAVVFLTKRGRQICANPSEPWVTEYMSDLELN
Sequence of murine CCL21 (mouse) (P84444 24-133): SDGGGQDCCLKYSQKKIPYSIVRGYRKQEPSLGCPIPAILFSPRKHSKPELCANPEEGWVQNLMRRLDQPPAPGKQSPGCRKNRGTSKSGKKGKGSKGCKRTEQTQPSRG
Sequence of murine CCL3 (mouse) (P10855 24-92 limits assumed): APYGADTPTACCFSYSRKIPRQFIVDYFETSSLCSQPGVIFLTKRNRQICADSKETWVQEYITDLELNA
Sequence of murine CCL24 (mouse) (Q9JKC0 27-119 limits assumed): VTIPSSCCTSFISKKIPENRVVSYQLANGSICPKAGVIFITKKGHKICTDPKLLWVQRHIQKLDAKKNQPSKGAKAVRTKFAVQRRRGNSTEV
Sequence of CXCL12 (hSDF-1b) (Homo sapiens) (P48061 22-93): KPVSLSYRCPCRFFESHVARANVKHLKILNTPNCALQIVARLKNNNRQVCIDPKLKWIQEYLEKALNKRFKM
Sequence of murine CCL5 (mouse) (P30882 24-91 limits assumed): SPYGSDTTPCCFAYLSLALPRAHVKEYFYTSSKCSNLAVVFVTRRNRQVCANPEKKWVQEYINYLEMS
Sequence of murine CCL20 (mouse) (O89093 28-97 limits assumed): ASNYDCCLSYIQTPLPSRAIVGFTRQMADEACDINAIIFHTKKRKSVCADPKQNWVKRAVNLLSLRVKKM
Sequence of CXCL12 (hSDF-1a) (Homo sapiens) (P48061 22-89 limits assumed): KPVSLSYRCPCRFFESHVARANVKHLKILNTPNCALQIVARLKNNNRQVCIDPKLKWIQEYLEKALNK

## T17 chemokine decoy receptor of Rodent herpesvirus Texas (RHVT), C-terminal His tag (6 histidine residues) fusion
Human CCL2 (human) [1]
  complex half-life: 26 s
Murine CCL3 (mouse) [2]
  complex half-life (t1/2): 90 s
Murine CCL2 (mouse) [3]
  complex half-life: 225 s
[4]
  Kd: 10.4 nM
[5]
  Kd: 21.4 nM
[6]
  Kd: 39.6 nM
Human CCL2 (human) [7]
  t1/2: 26.2 s
Murine CCL5 (mouse) [8]
  t1/2: 196 s
Murine CCL20 (mouse) [9]
  t1/2: 36.1 s
Murine CCL12 (mouse) [10]
  t1/2: 17.5 s
Murine CCL8 (mouse) [11]
  t1/2: 33.9 s
Murine CCL21 (mouse) [12]
  t1/2: 52.5 s
Murine CCL4 (mouse) [13]
  t1/2: 32.7 s
CCL9 [14]
  t1/2: 23.3 s
Murine CCL11 (mouse) [15]
  t1/2: 109 s
Murine CCL3 (mouse) [16]
  t1/2: 90.7 s
Murine CCL24 (mouse) [17]
  t1/2: 131 s
Murine CCL2 (mouse) [18]
  t1/2: 225 s
[19]
  koff: 0.0127 s⁻¹
  kon: 1.23e+06 M⁻¹ s⁻¹
[20]
  koff: 0.0174 s⁻¹
  kon: 812000 M⁻¹ s⁻¹
[21]
  koff: 0.0173 s⁻¹
  kon: 436000 M⁻¹ s⁻¹
Human CCL2 (human) [22]
  Kd: 1.76 nM
Murine CCL5 (mouse) [23]
  Kd: 1.47 nM
Murine CCL20 (mouse) [24]
  Kd: 5.62 nM
Murine CCL12 (mouse) [25]
  Kd: 2.54 nM
Murine CCL8 (mouse) [26]
  Kd: 1.23 nM
Murine CCL21 (mouse) [27]
  Kd: 15.5 nM
Murine CCL4 (mouse) [28]
  Kd: 0.16 nM
CCL9 [29]
  Kd: 18 nM
Murine CCL11 (mouse) [30]
  Kd: 0.37 nM
Murine CCL3 (mouse) [31]
  Kd: 3.25 nM
Murine CCL24 (mouse) [32]
  Kd: 10.5 nM
Murine CCL2 (mouse) [33]
  Kd: 7.15 nM
[34]
  t1/2: 54.6 s
[35]
  t1/2: 39.8 s
[36]
  t1/2: 20.2 s
[37]
  t1/2: 40.1 s
Human CCL2 (human) [38]
  koff: 0.0265 s⁻¹
  kon: 1.51e+07 M⁻¹ s⁻¹
Murine CCL5 (mouse) [39]
  koff: 0.0035 s⁻¹
  kon: 2.41e+06 M⁻¹ s⁻¹
Murine CCL20 (mouse) [40]
  koff: 0.0192 s⁻¹
  kon: 3.42e+06 M⁻¹ s⁻¹
Murine CCL12 (mouse) [41]
  koff: 0.0396 s⁻¹
  kon: 1.56e+07 M⁻¹ s⁻¹
Murine CCL8 (mouse) [42]
  koff: 0.0205 s⁻¹
  kon: 1.66e+07 M⁻¹ s⁻¹
Murine CCL21 (mouse) [43]
  koff: 0.0132 s⁻¹
  kon: 851000 M⁻¹ s⁻¹
Murine CCL4 (mouse) [44]
  koff: 0.0212 s⁻¹
  kon: 8.12e+07 M⁻¹ s⁻¹
CCL9 [45]
  koff: 0.0298 s⁻¹
  kon: 1.65e+06 M⁻¹ s⁻¹
Murine CCL11 (mouse) [46]
  koff: 0.00637 s⁻¹
  kon: 1.73e+07 M⁻¹ s⁻¹
Murine CCL3 (mouse) [47]
  koff: 0.0076 s⁻¹
  kon: 2.35e+06 M⁻¹ s⁻¹
Murine CCL24 (mouse) [48]
  koff: 0.0053 s⁻¹
  kon: 506000 M⁻¹ s⁻¹
Murine CCL2 (mouse) [49]
  koff: 0.00308 s⁻¹
  kon: 431000 M⁻¹ s⁻¹
[50]
  Kd: 19.2 nM
[51]
  Kd: 24.4 nM
[52]
  Kd: 44.2 nM
Human CCL2 (human) [53]
  Kd: 14.9 nM
Murine CCL5 (mouse) [54]
  Kd: 4.15 nM
Murine CCL20 (mouse) [55]
  Kd: 23.4 nM
Murine CCL12 (mouse) [56]
  Kd: 12.3 nM
Murine CCL8 (mouse) [57]
  Kd: 3.79 nM
Murine CCL21 (mouse) [58]
  Kd: 22.3 nM
Murine CCL4 (mouse) [59]
  Kd: 4.74 nM
CCL9 [60]
  Kd: 39.1 nM
Murine CCL11 (mouse) [61]
  Kd: 33.5 nM
Murine CCL3 (mouse) [62]
  Kd: 6.76 nM
Murine CCL24 (mouse) [63]
  Kd: 11.9 nM
Murine CCL2 (mouse) [64]
  Kd: 38.9 nM
